In experiment [1] the test system is WT α-spectrin SH3 domain (WT Spc-SH3). The settings on record: Spc-SH3 relative to Abl-SH3; cited from earlier work. From the text:
Background SH3 domains are small protein modules of 60–85 amino acids that bind to short proline-rich sequences with moderate-to-low affinity and specificity. Interactions with SH3 domains play a crucial role in regulation of many cellular processes (some are related to cancer and AIDS) and have thus been interesting targets in drug design. The decapeptide APSYSPPPPP (p41) binds with relatively high affinity to the SH3 domain of the Abl tyrosine kinase (Abl-SH3), while it has a 100 times lower affinity for the α-spectrin SH3 domain (Spc-SH3). Results Here we present the high-resolution structu ... || Here we present the solution structure of the R21A mutant of the α-spectrin SH3 domain (Spc-SH3), both in its free form and bound to the decapeptide APSYSPPPPP (p41). We also show a complete thermodynamic characterization of the SH3-p41 interaction by calorimetric methods, together with an analysis of its effect upon the conformational dynamics of the SH3 domain using amide hydrogen-deuterium exchange (HX). The p41 peptide was initially designed as a high-affinity and high-specificity ligand for the Abl-SH3 domain [6] and the crystal structure of the complex was subsequently determined [[12] ...

The target of experiment [2] is R21A mutant of the α-spectrin SH3 domain (R21A Spc-SH3). The experiment in a line: ITC titration of R21A Spc-SH3 with p41. It counts as binding, chicken. The settings on record: 25°C, global fit of three isotherms, error = 95% confidence interval. As to the method:
(§1) The binding between the p41 decapeptide and the R21A Spc-SH3 mutant domain was studied by a combination of isothermal titration calorimetry (ITC) and differential scanning calorimetry (DSC) experiments. ITC experiments were performed at 25°C at both pH 3.0 and 7.0, using several buffers at a concentration of 20 mM. Similar ITC experiments were made with the WT Spc-SH3 domain for comparison. […] The contribution of protonation/deprotonation processes to the binding enthalpy change, was estimated using three buffers differing in their ionization heats (Figure 1B).
(§2) ITC experiments were performed at 25°C in a high-precision MCS titration calorimeter (Microcal Inc., Northampton, MA). Prior to the experiments the protein was extensively dialyzed at 4°C against the appropriate buffer. The solutions of p41 peptide were prepared by dissolving the lyophilized material directly into the buffer and subsequently adjusting the pH of the solution. All buffers and solutions were filtered and degassed and equilibrated to the working temperature prior to each experiment. […] The binding constant, Kb, and the enthalpy change of binding, ΔHb, were determined by global fitting of the three binding isotherms measured in different buffers, using a model of binding to a single set of identical sites, according to the equation: […]
For orientation: ITC needs no label: the signal is the heat of the interaction.

For experiment [3], the target named is WT α-spectrin SH3 domain (WT Spc-SH3). The experiment in a line: ITC titration of WT Spc-SH3 with p41. It counts as binding, chicken. The settings on record: 25°C, global fit of three isotherms, error = 95% confidence interval. More on the design: unit not given here. As to the method: as §1, §2
The target of experiment [4] is SH3 domain of the Abl tyrosine kinase (Abl-SH3). The settings on record: cited from earlier work; for Kb (binding constant): ITC, 25°C. The source says: The affinities are much lower than that of the Abl-SH3 domain for p41 under similar conditions, which is in the range of 2 × 10^5 – 4 × 10^5 M^-1 [16]. In all cases the binding is driven by a large and favourable enthalpy change, partially compensated by an unfavourable entropy change. A similar thermodynamic signature is usually observed for the binding of proline-rich peptides to other SH3 domains. The very small variation of the binding enthalpies with the ionization enthalpy of the buffers ... || We have performed a global analysis of the ΔCpapp MathType@MTEF@5@5@+=feaafiart1ev1aaatCvAUfKttLearuWrP9MDH5MBPbIqV92AaeXatLxBI9gBaebbnrfifHhDYfgasaacH8akY=wiFfYdH8Gipec8Eeeu0xXdbba9frFj0=OqFfea0dXdd9vqai=hGuQ8kuc9pgc9s8qqaq=dirpe0xb9q8qiLsFr0=vr0=vr0dc8meaabaqaciaacaGaaeqabaqabeGadaaakeaacqqHuoarcqWGdbWqdaqhaaWcbaGaemiCaahabaGaemyyaeMaemiCaaNaemiCaahaaaaa@34D4@ curves using a simple model in which the protein/ligand binding and protein unfolding equilibria are coupled (Figure 2). This analysis is, with minor modifications, similar to that used previously for the analysis of the interaction be ...

For experiment [5], the target named is p41 decapeptide. Description: ITC (Microcal MCS). The conditions noted are these: 25 °C, added salt not given, 20 mM buffer only, Three buffers of different ionisation heat at each pH, each 20 mM. At pH 7.0: phosphate, hepes and imidazole (named in F); for Kb: scale: 10^3 M^-1.
Experiment [6] deals with p41 decapeptide. The experiment in a line: ITC (quoted from reference 16, Palencia et al. 2004). The conditions noted are these: 25 °C (Table 1 title), not stated ('under similar conditions'), cited from earlier work; for Kb: scale: 10^3 M^-1.

Like-named read-outs stand apart in the source and are kept apart here.

“APSYSPPPPP [p41, synthetic decapeptide …, both acetylated and methylated in its termini]”: in experiment [1], the “times lower affinity for Spc-SH3 than for Abl-SH3” value was 100 times. For the same substance, the “Kb (binding constant)” value in experiment [2] (pH 3.0, 20 mM buffers) is 18.2 ± 2.0 ×10^-3 M^-1; in experiment [2] (pH 7.0, 20 mM buffers (phosphate, hepes, imidazole), single set of identical sites) it was 18.1 ± 1.9 ×10^-3 M^-1; in experiment [3] (pH 3.0, 20 mM buffers), 5.8 ± 0.8 ×10^-3; in experiment [3] (pH 7.0, 20 mM buffers), 5.2 ± 1.2 ×10^-3; in experiment [4] (pH 3.0), 210000 M⁻¹; in experiment [4] (pH 7.0), 323000 M⁻¹. Moreover, the “affinity of the Abl-SH3 domain for p41 (binding constant)” value in experiment [4] (under similar conditions) is 200000 to 400000 M⁻¹.
With “alpha-spectrin SH3 domain (Spc-SH3), wild type”, in experiment [5] (pH 3.0), the p (protons per mole of ligand bound) is -0.07, the ΔGb is -5.14 kcal/mol and the Kb was determined as 5.8. In experiment [5] (pH 7.0), the p (protons per mole of ligand bound) amounted to 0.01, the ΔGb was -5.07 kcal/mol and the Kb amounted to 5.2.
Turning to “Abl tyrosine kinase SH3 domain (Abl-SH3)”, in experiment [6] (pH 3.0), the ΔGb is -7.27 kcal/mol and the Kb is 210. In addition, in experiment [6] (pH 7.0), the p (protons per mole of ligand bound) is 0.1, the ΔGb is -7.5 kcal/mol and the Kb is 323.
For the substance “alpha-spectrin SH3 domain (Spc-SH3), R21A mutant R21A”, in experiment [5] (pH 3.0), the p (protons per mole of ligand bound) is -0.29, the ΔGb was -5.81 kcal/mol and the Kb is 18.2. Besides, in experiment [5] (pH 7.0), the p (protons per mole of ligand bound) worked out at 0.06, the ΔGb was -5.81 kcal/mol and the Kb came out at 18.1.
